Results as given in patent US20210032664, “ENGINEERED MEGANUCLEASES WITH RECOGNITION SEQUENCES FOUND IN THE HUMAN BETA-2 MICROGLOBULIN GENE” (Precision Biosciences, Inc., published 2021).

Experiments:
Experiment in all cases: cell_activity; human T cells, 1 ug mRNA, day 3
Conditions in all cases: tags: N-terminal SV40 NLS
B2M 13-14x.365 = biological target: T1, B2M 13-14x.365 (Artificial Sequence)
T1 chain: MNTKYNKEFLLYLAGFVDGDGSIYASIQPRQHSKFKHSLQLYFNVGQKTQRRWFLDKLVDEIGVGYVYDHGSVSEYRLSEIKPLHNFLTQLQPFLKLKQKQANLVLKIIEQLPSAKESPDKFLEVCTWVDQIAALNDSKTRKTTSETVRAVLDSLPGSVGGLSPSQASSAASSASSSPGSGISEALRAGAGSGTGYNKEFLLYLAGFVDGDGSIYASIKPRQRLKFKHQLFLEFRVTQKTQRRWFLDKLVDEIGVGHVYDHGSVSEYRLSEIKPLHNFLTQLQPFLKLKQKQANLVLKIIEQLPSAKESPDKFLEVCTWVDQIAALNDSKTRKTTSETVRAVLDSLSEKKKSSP
Protocol: (§1) Donor human T cells were stimulated with anti-CD3 and anti-CD28 antibodies for 3 days, then electroporated with mRNA encoding a given B2M 13-14 meganuclease (1 μg) using the Amaxa 4D-Nucleofector (Lonza) according to the manufacturer's instructions. To look for the loss of B2M surface expression, cells were stained with an antibody recognizing β-2 microglobulin (BD Biosciences) as well as an antibody recognizing CD3 (BioLegend), a marker of T cells.

B2M 13-14x.378 = biological target: T2, B2M 13-14x.378 (Artificial Sequence)
T2 chain: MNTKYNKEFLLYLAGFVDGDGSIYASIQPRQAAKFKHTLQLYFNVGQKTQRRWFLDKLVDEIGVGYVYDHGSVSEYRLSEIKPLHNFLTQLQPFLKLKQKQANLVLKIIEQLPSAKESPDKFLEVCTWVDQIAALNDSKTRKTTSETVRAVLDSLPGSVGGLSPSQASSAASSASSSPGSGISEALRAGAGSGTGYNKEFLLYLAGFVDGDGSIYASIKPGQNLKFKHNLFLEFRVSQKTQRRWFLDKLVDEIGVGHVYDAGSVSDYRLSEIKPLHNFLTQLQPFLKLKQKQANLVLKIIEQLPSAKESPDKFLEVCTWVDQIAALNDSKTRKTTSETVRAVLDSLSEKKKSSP
Protocol: as §1

B2M 13-14x.465 = biological target: T3, B2M 13-14x.465 (Artificial Sequence)
T3 chain: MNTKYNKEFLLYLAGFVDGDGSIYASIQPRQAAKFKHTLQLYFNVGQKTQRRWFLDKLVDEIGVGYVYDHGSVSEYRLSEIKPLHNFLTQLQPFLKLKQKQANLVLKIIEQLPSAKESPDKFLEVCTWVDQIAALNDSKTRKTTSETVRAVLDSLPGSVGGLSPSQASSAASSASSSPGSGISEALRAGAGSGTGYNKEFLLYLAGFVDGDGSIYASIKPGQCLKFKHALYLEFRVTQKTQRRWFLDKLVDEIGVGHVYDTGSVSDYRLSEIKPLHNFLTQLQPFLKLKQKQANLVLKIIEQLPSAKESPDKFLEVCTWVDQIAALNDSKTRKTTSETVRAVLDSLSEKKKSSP
Protocol: as §1

B2M 13-14x.287 = biological target: T4, B2M 13-14x.287 (Artificial Sequence)
T4 chain: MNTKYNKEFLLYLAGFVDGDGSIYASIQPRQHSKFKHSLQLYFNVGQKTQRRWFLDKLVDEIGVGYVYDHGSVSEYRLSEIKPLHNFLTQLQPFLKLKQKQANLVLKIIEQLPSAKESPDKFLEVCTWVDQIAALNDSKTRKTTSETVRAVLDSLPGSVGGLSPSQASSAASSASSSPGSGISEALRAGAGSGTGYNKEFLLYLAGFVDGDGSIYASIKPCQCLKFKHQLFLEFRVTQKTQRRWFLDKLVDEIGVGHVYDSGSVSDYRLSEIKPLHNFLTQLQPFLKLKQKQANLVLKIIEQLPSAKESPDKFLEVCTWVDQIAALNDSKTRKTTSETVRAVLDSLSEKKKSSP
Protocol: as §1

B2M 13-14x.464 = biological target: T5, B2M 13-14x.464 (Artificial Sequence)
T5 chain: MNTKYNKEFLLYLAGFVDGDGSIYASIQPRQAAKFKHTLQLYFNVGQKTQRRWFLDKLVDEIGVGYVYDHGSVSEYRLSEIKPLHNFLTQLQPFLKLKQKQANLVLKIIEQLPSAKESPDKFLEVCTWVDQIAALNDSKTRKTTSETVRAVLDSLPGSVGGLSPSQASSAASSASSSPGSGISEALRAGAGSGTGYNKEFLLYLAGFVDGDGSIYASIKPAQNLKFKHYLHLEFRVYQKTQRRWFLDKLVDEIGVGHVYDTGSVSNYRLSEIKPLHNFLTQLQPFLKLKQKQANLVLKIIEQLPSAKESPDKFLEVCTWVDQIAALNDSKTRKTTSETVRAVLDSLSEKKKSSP
Protocol: as §1

B2M 13-14x.283 = biological target: T6, B2M 13-14x.283 (Artificial Sequence)
T6 chain: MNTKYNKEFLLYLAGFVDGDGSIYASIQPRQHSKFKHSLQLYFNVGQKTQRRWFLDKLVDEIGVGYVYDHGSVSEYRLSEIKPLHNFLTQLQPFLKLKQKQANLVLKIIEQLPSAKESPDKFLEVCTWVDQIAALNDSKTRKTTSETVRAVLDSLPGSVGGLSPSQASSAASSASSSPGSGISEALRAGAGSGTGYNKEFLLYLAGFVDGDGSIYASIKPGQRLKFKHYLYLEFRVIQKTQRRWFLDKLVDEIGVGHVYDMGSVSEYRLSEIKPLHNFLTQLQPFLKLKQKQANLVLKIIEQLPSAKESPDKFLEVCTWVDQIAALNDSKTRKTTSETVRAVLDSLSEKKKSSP
Protocol: as §1

B2M 13-14x.362 = biological target: T7, B2M 13-14x.362 (Artificial Sequence)
T7 chain: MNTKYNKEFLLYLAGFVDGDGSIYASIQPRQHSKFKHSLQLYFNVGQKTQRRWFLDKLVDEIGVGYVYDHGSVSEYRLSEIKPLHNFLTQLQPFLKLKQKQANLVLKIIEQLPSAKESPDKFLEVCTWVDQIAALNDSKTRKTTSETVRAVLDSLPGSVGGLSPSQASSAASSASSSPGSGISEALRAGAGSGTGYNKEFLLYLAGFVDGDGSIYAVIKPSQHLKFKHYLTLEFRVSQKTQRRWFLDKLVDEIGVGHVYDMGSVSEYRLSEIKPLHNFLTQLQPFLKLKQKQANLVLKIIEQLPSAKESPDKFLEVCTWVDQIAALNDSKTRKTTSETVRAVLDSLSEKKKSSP
Protocol: as §1

B1: B2M 13-14 recognition sequence (dsDNA)
DNA 1: CTATCTCTTGTACTACACTGAA
DNA 2: TTCAGTGTAGTACAAGAGATAG
How did the activity (B2M 13-14x.365) turn out when B1 was run?
The activity was 27.4 % B2M-negative.

What about the activity (B2M 13-14x.378) of the same binder?
The activity was 3.54 % B2M-negative.

What about the activity (B2M 13-14x.465) of the same binder?
The activity was 30.8 % B2M-negative.

What about the activity (B2M 13-14x.287) of the same binder?
The activity was 75.7 % B2M-negative.

And the activity (B2M 13-14x.464)?
The activity was 8.24 % B2M-negative.

And the activity (B2M 13-14x.283)?
The activity was 49.3 % B2M-negative.

What about the activity (B2M 13-14x.362) of the same binder?
The activity was 37.8 % B2M-negative.
